Earlier results, collected in US20170319567A1, “Use of CCR3-Inhibitors” (Alkahest, Inc., priority 2013, published 2017).

Tested on: eosinophils
Conditions: EoE patients, anti IL-5 therapy

B1: Mepolizumab: anti IL-5 antibody (antibody, chains of the INN, looked up, V domains shown)
VH: QVTLRESGPALVKPTQTLTLTCTVSGFSLTSYSVHWVRQPPGKGLEWLGVIWASGGTDYNSALMSRLSISKDTSRNQVVLTMTNMDPVDTATYYCARDPPSSLLRLDYWGRGTPVTVSS
VL: DIVMTQSPDSLAVSLGERATINCKSSQSLLNSGNQKNYLAWYQQKPGQPPKLLIYGASTRESGVPDRFSGSGSGTDFTLTISSLQAEDVAVYYCQNVHSFPFTFGGGTKLEIK
lowering of peripheral eosinophils: 5 fold | reduction in biopsy eosinophils: 2 fold
